# PMC4694823, “Tumorigenesis by Meis1 overexpression is accompanied by a change of DNA target-sequence specificity which allows binding to the AP-1 element”
# B1: OCTA+AP1 (dsDNA)
# DNA 1: ATTATAGTGATGAATCATCATGACTCATGGTCCAG
# DNA 2: CTGGACCATGAGTCATGATGATTCATCACTATAAT
# B2: AP1 (dsDNA)
# DNA 1: CATTACCATGAGTCATTGGGCTTGCTC
# DNA 2: GAGCAAGCCCAATGACTCATGGTAATG
# B3: AP1+DECA (dsDNA)
# DNA 1: TAAAATGCTGAGTCACTGACTGACAGCTTTAGGCT
# DNA 2: AGCCTAAAGCTGTCAGTCAGTGACTCAGCATTTTA
# B4: OCTA (dsDNA)
# DNA 1: GAAAGTGATAAATAATACAAGGAAAGC
# DNA 2: GCTTTCCTTGTATTATTTATCACTTTC
# B5: DECA (dsDNA)
# DNA 1: AGCTGACCTCTGAGTGACAGGGTGGAATGTGA
# DNA 2: TCACATTCCACCCTGTCACTCAGAGGTCAGCT
# Tests used:
# Meis1;Pbx1 [1] = molecular target: T1, Meis1;Pbx1 (mouse?;mouse?, UniProt Q60954;P41778 1-390;1-308, |); test: EMSA; 15 uL reactions with 5% glycerol, 1 ug poly-dIdC, 1.3 uM ds oligo, 12 ug Meis1/Pbx1 or 7 ug Prep1/Pbx1; 30 min on ice; 5-15% native PAGE, GelRed stain; buffer; details: protein: recombinant;recombinant; tags: GST fusion from modified pGEX6p-2rbs; copies: 1;1; blunt
# T1 sequence 1: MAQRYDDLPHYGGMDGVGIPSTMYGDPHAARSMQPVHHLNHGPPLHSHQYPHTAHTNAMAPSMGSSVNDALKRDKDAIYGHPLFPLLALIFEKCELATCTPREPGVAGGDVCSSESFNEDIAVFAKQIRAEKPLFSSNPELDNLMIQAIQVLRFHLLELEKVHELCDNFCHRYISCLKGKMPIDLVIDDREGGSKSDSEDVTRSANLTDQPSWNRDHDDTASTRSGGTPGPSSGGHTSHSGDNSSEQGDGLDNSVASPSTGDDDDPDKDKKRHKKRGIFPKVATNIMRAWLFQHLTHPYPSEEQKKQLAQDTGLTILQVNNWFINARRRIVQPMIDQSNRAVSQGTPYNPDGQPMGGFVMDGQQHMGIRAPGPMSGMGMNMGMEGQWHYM
# T1 sequence 2: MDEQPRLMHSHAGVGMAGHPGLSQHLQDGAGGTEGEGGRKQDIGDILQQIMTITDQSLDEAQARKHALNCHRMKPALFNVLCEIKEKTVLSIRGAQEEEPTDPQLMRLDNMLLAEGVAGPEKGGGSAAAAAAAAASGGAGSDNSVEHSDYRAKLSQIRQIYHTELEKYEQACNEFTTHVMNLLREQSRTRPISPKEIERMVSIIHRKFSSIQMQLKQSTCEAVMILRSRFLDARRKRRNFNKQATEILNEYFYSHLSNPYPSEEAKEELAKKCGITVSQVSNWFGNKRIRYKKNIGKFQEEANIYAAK
# Meis1;Pbx1 [2] = molecular target: T1, Meis1;Pbx1; test: EMSA; needs higher protein:DNA ratio than OCTA; 15 uL reactions with 5% glycerol, 1 ug poly-dIdC, 1.3 uM ds oligo, 12 ug Meis1/Pbx1 or 7 ug Prep1/Pbx1; 30 min on ice; 5-15% native PAGE, GelRed stain; buffer; details: protein: recombinant;recombinant; tags: GST fusion from modified pGEX6p-2rbs; copies: 1;1; blunt
# Prep1 (pKnox1);Pbx1 [3] = molecular target: T2, Prep1 (pKnox1);Pbx1 (mouse?;mouse?, UniProt O70477;P41778 1-344;1-308, |); test: EMSA; binds also at low protein:DNA ratio; AP1 oligo taken as the only printed single AP1 oligo; 15 uL reactions with 5% glycerol, 1 ug poly-dIdC, 1.3 uM ds oligo, 12 ug Meis1/Pbx1 or 7 ug Prep1/Pbx1; 30 min on ice; 5-15% native PAGE, GelRed stain; buffer; details: protein: recombinant;recombinant; tags: GST fusion from modified pGEX6p-2rbs; copies: 1;1; blunt
# T2 sequence 1: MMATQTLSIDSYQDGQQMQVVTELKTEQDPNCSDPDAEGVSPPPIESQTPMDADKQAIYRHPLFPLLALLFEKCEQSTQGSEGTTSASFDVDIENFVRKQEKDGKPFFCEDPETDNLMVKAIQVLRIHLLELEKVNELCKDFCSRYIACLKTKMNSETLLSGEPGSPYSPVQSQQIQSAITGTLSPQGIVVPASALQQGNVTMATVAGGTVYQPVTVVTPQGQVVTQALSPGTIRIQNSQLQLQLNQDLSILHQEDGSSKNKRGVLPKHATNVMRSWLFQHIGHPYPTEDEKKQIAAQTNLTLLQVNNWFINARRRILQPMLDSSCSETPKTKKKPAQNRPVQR
# T2 sequence 2: T1 sequence 2
# c-Fos;c-Jun = c-Fos;c-Jun (;, UniProt P01100;P05412 1-380;1-331, |); test: EMSA; 15 uL reactions with 5% glycerol, 1 ug poly-dIdC, 1.3 uM ds oligo, 12 ug Meis1/Pbx1 or 7 ug Prep1/Pbx1; 30 min on ice; 5-15% native PAGE, GelRed stain; buffer; details: protein: commercial;commercial; tags: ;; copies: 1;1; blunt
# Chain of c-Fos;c-Jun (P01100 whole entry, chain 1 of 2, the tested form may be a part): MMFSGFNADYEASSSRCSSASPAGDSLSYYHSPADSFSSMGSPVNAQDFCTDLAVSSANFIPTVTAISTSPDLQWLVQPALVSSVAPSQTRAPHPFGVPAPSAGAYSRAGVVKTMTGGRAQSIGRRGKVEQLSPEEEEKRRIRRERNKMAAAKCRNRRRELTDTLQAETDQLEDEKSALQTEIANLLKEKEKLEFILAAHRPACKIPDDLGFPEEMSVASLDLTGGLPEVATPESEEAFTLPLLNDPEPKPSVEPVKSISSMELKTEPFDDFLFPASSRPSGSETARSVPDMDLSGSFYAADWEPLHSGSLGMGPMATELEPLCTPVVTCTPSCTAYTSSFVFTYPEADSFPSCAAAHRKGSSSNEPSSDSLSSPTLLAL
# Chain of c-Fos;c-Jun (P05412 whole entry, chain 2 of 2, the tested form may be a part): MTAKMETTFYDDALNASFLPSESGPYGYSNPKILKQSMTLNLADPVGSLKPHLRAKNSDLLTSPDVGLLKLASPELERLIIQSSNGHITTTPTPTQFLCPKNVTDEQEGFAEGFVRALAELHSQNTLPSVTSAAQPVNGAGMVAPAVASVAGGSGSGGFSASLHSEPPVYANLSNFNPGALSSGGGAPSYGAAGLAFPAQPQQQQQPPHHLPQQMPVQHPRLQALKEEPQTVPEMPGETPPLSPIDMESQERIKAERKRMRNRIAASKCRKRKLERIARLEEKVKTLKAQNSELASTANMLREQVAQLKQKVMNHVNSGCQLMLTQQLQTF
# Prep1 (pKnox1);Pbx1 [4] = molecular target: T2, Prep1 (pKnox1);Pbx1; test: as above; details: protein: recombinant;recombinant; tags: GST fusion from modified pGEX6p-2rbs; copies: 1;1; blunt
# Meis1;Pbx1 [5] = molecular target: T1, Meis1;Pbx1; test: EMSA; binds at lower protein:DNA ratio than AP1; 15 uL reactions with 5% glycerol, 1 ug poly-dIdC, 1.3 uM ds oligo, 12 ug Meis1/Pbx1 or 7 ug Prep1/Pbx1; 30 min on ice; 5-15% native PAGE, GelRed stain; buffer; details: protein: recombinant;recombinant; tags: GST fusion from modified pGEX6p-2rbs; copies: 1;1; blunt
binder,measurement,setting,value
B1,binding result,Meis1;Pbx1 [1],binds
B2,binding result,Meis1;Pbx1 [2],binds
same,binding result,Prep1 (pKnox1);Pbx1 [3],binds
same,binding result,c-Fos;c-Jun,binds
B3,binding result,Prep1 (pKnox1);Pbx1 [4],binds
B4,binding result,Meis1;Pbx1 [5],binds
B5,binding result,Prep1 (pKnox1);Pbx1 [4],binds
